Measured values published in the nanobody polyreactivity screen of Harvey et al. (2022).

Test: yeast display, Sf9 membrane polyspecificity reagent, FACS + sequencing; frameworks hold sequencing errors
Method in brief: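 Sorting gates, low and high (top ~1%), were placed on anti-HA fluorescence to track expression and on streptavidin fluorescence to track reagent binding. A clone's polyreactivity label is taken from the gate it came out of. The reagent was 10% biotinylated, detergent-solubilized Sf9 membrane, applied for 1 hour at 4 °C to galactose-induced yeast display cells.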

Sequence	polyreactivity (PSR sort gate)
QVQLVESCGGLVQAGGSLRLSSAASGRIFYAYVMGWYRQAPGKERELVADITSSGSTNYADTVKGRFTISRDNAKKTVYLQLISLKQEDTAVFYCAKVPYGYQVRRNFGYWGQGTQVTVSS	low polyreactivity
QVHLVESGGGLVQAGGSLRLSCAASGFTFTLYAMGWYRQAPGKERELVAAIYFSGGNTYYADSVKGRFTISRDNAKNTVYLQMNSLKPEDTAVYYCAAEYYPSASYYYGWYTIFWLITRDDYYWGQGTQVTVSS	high polyreactivity
QVQLVESGGGLVQAGASLRLSCAASGFISYYYAMGWYRQAPGKERELVAAITKSGGSTYYADSVKGRFTISRDNAKNTVYLQMNSLKREDTAVYYCAAVRSTRNSTSRLYGYWGQGTQVTVSS	low polyreactivity
QVQLVESGGGLVQAGGSLRLSCAASGLIFRWYAMGWYRQAPGTERELVAAISRRGGTTNYADSVKGRFTISRDNAKNTVYLQMNSLKPEDTAVYYCAADYQSVGGAEYDYWGQCTQVTVSS	high polyreactivity
QVQLVESGGGLLQAGGSLRLSCAASGMGWYRQAPGKERELVAAISWNGGSTYYADSVKGRFTISRDNAKNTVYLQMNSLKPEDTAVYYCAADYSTVASSLYLDSWGQGTQVTVSS	low polyreactivity
NVQLVESGGGLVQAGGSLRLSCAASGRTFPTYAMGWYRQAPGKERELVAAISSSGGSTYYADSVKGRFTISRDNAKNTVYLQMNSLKPEDTAVYYCAALRARNLNPGYDYWGQGTQVTVSS	low polyreactivity
QVQLVESGGGLVQAGGSLRLSCAASGLIFSRYTMGWYRQAPGKERELVAAISKTGSSTYYADSVKGRFTISRDNAKNTVYLQMNSLKPEDTAVYYCAAETGTGETRYYRYWDYYYWGQGTQVTVSS	high polyreactivity
QVQLVESGGGLVQAGGSLRLSCAASGFTFRENTMGWYRQAPGKERELVASISWSGGSTYYADSVKGRFTISRDNAKNTVYLQMNSLKPEDTAVYYCAATYAWLSKGYRGMDYWGQGTQVTVSS	low polyreactivity
QVKRVESGGGLVQAGGSLRLSCAASGSIVVTNAMGWYRQAPGKERELVAAITSSGSTDYADSVKGRFTISRDNAKNTVSLLMKILKREDTAVYYCNADVATGIFYGYDSWGQGTQVTVSS	low polyreactivity
QVQLVESGGGLVQAGGSLRLSCAASGSIFRSYAMGWYRQAPGKERELVAAITSGDSTYYADSVKGRFTISRDNAKNTVYLQMNSLKPEDTAVYYCATGLGSTDRSYEYWGQGTQVTVSS	low polyreactivity
QVQLVESGGRLVQAGGSLRLICAASGITYYEYAMGWYRQAPGKERELVAAITSGGTTNYADSVNGRFTISLDNAKNTVYLQMNSLKPEDTAVYFCAADLIGYSYPDEYYGKGEYDYWGQGTQVTVSS	low polyreactivity
QVHLVESGGGLVQAGGSLRLSCAASGRTFDRNAMGWYRQAPGKERELVAAISRNGGSTYYADSVKGRFTISRDNAKNTVYLQMNSLKPEDTAVYYCAAPRSVYDVARGDYWGQGTQVTVSS	high polyreactivity
QVQLVESGGGLVQAGGSLRLSCAASGRIFYYNAMGWYRQAPGKERELVAAIRGGGSTNYADSVKGRFTISRDNAKNTVYLQMNSLKPEDTAVYYCAAPWTQILDYWGQGTQVTVSS	low polyreactivity
QVQLVESGGGLVQAGGSLRLSCAASGSIFRSYAMGWYRQAPGKERELVAAISWDGGTTYYADSVKGRFTISRDNAKNTVYLQMNSLKPEDTAVYYCAADASLLGLFQGYDYRGQGTQVTVSS	low polyreactivity
QLQLVESGGGLVQAGGSLRLSCAASGYTFKWYAMGCYRQAPGKERELVAAIRGSGGSSYYAVSVKGRFTISRDNAKNTVYLQMNSLKPEDTAGYYCNAVLRWAQNPRIFLGYDYWGQGTQVTVSS	high polyreactivity
QVQLVESGGGLVQAGGSHRLSCDASGRTFWVNAMGWYRQAPGKERELVATIRGSGVSTYYADSVNGRFTISRDNAKNTVYLKMNSLKPVDTAVYYCATTYHRVGLQYTFDYLGQGTQVTVSS	low polyreactivity
QVQLVESGGGLVQAGGSLRLSCAASGRIFGSYAMGSYRQAPGKERELVAAINWRGGSTFYADSVKGRFTISRDNAKNTVYLQMNSLKPEDTAVYYCARRGYRQSGDYWGQGTQVTVSS	low polyreactivity
QVQIVESGGGLVQAGGSLRLSCAASGLIIPFYAMGWYRQAPGKERELVAAISWSAGSTYYADSVKGRFTISRDNAKNTVYLQMNSLKPEDTAGYYCAATAYYYYDYDYWGQGTQVTVSS	low polyreactivity
QVQLVESGGGLVQAGGSLRLSCAASGITFKYYTMAWYRQAPGKERELVAAISRSGGSTYYADSVKGRFTISRDNAKNTVYLQMMSLKPEDTAVYYCAAERGAYRGVTFTYGYWGQGTQVTLSS	high polyreactivity
QVQLVESGGGLVQAGGSLRLSCAASGFTFTINAMGWYRQAPGKERELVAAINWRGGSTYYADSVKGRFTISRDNAKNTVYLQMNSLKPEDTAVYYCNAVASIYSYAYPPYWGREHLNYWGQGTQVTVSS	low polyreactivity
QVQLQESGGGLVQAGGSLRLSCAASGYISHADEMGWYRQAPGKEHELVASISNGGSTNYADSVKGRFTISRDNAKNTVYQQMNSLKSEYTAVYYCAALTGQVDIHYYWCQGTQVTVSS	low polyreactivity
QVQLVESCGGLVQAGGSLRLSCAPSGSIFVCYAMGWYRQAPWKEREFVAAITSGRGTYYADSVKGRFTRSRDNAQITVYLQMNSLKPEDTEVYYCNTVWRTRSFRAPAVAYGYWGQGTQVTVSS	high polyreactivity

Sequence	polyreactivity (PSR sort gate)
QDQLVESGGGLVQAGGSLRLSCAASGRIFKFNAMGWYRPAPGKERELVAAITSGGSTNYADSVKGRFTLSRDNEKNTVYLQMNSLKREDTAVYYCAKSTPRFYPRGFYYWGHGTQVTVSS	low polyreactivity
QVQLVESGGRLVQAGGSLRLSCAASGRIFANYAMGWYRQAPGKERELVAAISRSGGSTSYADSVKGRFTISRDNAKNTVYLQMNSLKTEDTAVYYCAATRSRYQPVKYGYWGQGTQVTVTS	high polyreactivity
QVQLVESGGGLVQAGGSLRLSCAASGSTFDSYAMGWYRQAPGKERELVAVINSGGSTNYADSVKGRFTISRDNAKNTVYLLMNSLKPEDTAVYYCSAEERYRWHVVGWGYWYDYWGQGTQVTVSS	low polyreactivity
QVQLVESGGGLVQAGGSLRLSCAASGITFPGNAMGWYRQAPGKERELVAGISDGDSTNYADSVKGRFTISRDNAKNTVYLQMNSLKPEDTAVYYCNAQGTTETSGGGFFRGMDYWGQGTQVTVSS	low polyreactivity
QVQLVDSGGGLVQAGGRLRLSCAASGITFYYNAMGWYRQAPGKERELVATISSRGGSTYYADSVKGRFTISRDNAKNTVYLQMNSLKPEDTEVYYCNAGRSRYRWSTTGYTQVRDDYWGQATQVTVSS	high polyreactivity
QFQLVESGGGLVQAGGSLRLSCAASGSTFDTYAMGWYRQAPGKERDLFAAISGSGVRTYYADSVKGRFTISRDNAKNTVYLQMNSLKPEDTAVYYSAAAGSGYGGKQFDHGFNYWGQGTQVTVSS	high polyreactivity
QVQLVESGVGLVQAGGSLRLSCAASGYIFRLYAMGGYRQAPGKERELVATITASGGTYYADSVKGRFTISRDNAKNTVYLQMNSLKPEDTAVYYCAAAKLRRLSRVRYGYWGQGTQVTVSS	high polyreactivity
QVQLVESGGGLVQARGSLRLSCAASGNTFVTNAIGWYRQAPGKVRELVAAINSSGGSTYYADSVKGRFTISRDNAKNTVYLQMNSLKPEDTAVYYCAADPLGITSGYGYWGQGTQVNVSS	low polyreactivity
QVQIVESGGGLVQAGGSLRLSCAASGRTFNGYAMGWYRQAPGKERELVARITYRGGGTYYADSVKGRFTISRDNAKNTVYLQMNSLKPEDTAVYYCNAVYHSSGRMGYWGQGTQVTLSS	high polyreactivity
QVHLVESGGGLVQAGGSLRLSCAASGSIFITYAMVWYRQAPGKERELVAAIRDSGDRTYYADSVKGRFTISRDNAKNTVYLQMNSLKPEDTAVYYCNARWQEPLKYDYWGQGTKVTVSS	low polyreactivity
QVQLVESGVGIVQAGGSLRLSCAASGSTFRAYVMGWYRQAPGKERELVAVISSGGSTKYADSVKGRFTISRDNAKNTDYVQMNSLKPVDTAVYYCAARRASRHRYYPFDYWGQGTQVTVSS	high polyreactivity
QVQLVESGGGLVQAGGSLRLSCAASGTTFYGYVMGWYRQAPGKQREWVAAISSSGGRTYYADSVKGRFTISRDNAKNTVYLQMNSLNPEDTAVYYCNTVQRYSTHYDYWGQGTQVTVSS	high polyreactivity
QVQLVESGGGLVQAGGSLRLSCAASGSIFGSNTMGWYRQAPGKEREFVAAISFSGGSTYYADSVKGRFTISRDNAKNTVYLQMNSLKPEDTAVYYCAARQRRVGTSFYSSRRDYWGQGTQVTVSS	high polyreactivity
QVQLVESGGGLVQAGGSLRLSCAASGRTFERYAMGWYRQAPGKERELVADISSSGSTNYADSVKGRFTISRDNAKNTVYLQMNRLNPEDTAVYYCAADYWRHWYWDVVEFDYWGQGTQVTVSS	high polyreactivity
QVQLVESGGGLVQAGGSLRLSCAASGFTFTAYARGWYRQAPGKERELVAAINWSGSRTSYADSVKGRFTISRDNAKNTVYLQMNSLKPEDTAVYYCNPATSKSSYRHYDYWGQGTQVTVSS	high polyreactivity
QVQLVESGGGLVQAGGSLRLSCAASGRTFRRNAMGWYREAPGKERELVASINRGGGKNYADSVKGRFTISRDNAKNTVYLQMNSLKPEDTAVYYCAAVPIAADKANGYDYWGQGTQVTVSS	low polyreactivity
QVQLVESGGGLVQAGGSLRLSCAASGRIFILNTMGWYRQAPGKERELVAGISYSGSTYYADSVKGRFTISRDNAKNTVYSQMNSLKPVDTAVYYCAADYDAAWYNDGYYYWGQGTQVTVSS	low polyreactivity
QVQLVESGGGLVQAGGSLRLSCAASGLIFIFNTMGWYRQAPGKERELVAAISWSGTSTYYADSVKGRFTISRDNAKNTVYLQMHSLKPEDTAVYYCAARGYYYKYSTARRNYWGQGTQVTVSS	high polyreactivity
QVQLVESGGGLVQAGGSLRLSCAASGFIFDYYAMGWYRQAPGKERELVAGISNGDTTYYADSVKGRFTISRDNAKNTVYLQMNSLKPEDTAVYYCNAKPFYWVLGGYDYWGQGTQVTVSS	low polyreactivity
QVQLVESGGGIVQAGGSLRLSCAASGNIFPYYDMGWYRPAPGKERELVAAITSSASGTYYADSVKGRFTISRDNAKNTVYLQMNSLKPEDTAVYYCAAGVFFFTFDYWGQGTQVTVSS	low polyreactivity
QVQLVESGGGLVQAGGSLRLSCAASGRIFYSIAMGWYRQAPGKERELVAAISRSGVRTYYADSVKGRFTISRDNAKNTVYLQMNSLKPEDTAVYYCAAVIYGTTPQDEYDYWGQGTQVTVSS	low polyreactivity
